Data on four molecules can be found in publication PMC3159463.

Read-outs that look alike come from different tables or passages of the source.

The target of series [1] is pED208 TraM (plasmid pED208 (transfer-derepressed derivative of the Folac plasmid originally isolated from Salmonella typhi)) (UniProt P33788). Briefly: crystal structure.
Series [2] has as its target T1, F TraM (F plasmid, UniProt P10026 1-127).
T1 sequence: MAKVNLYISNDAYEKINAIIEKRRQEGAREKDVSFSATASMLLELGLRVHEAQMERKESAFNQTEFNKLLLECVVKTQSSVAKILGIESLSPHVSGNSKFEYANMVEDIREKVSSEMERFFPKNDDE
Nature of the series: SEC-MALLS.

Series [3] has as its target T1, F TraM. Nature of the series: SEC-MALLS. This is another data set of the same source.
The target of series [4] is T2, TraM[F1-55:pED208 56-127] chimera (F plasmid / plasmid pED208 chimera, UniProt P10026 1-55+P33788:56-127, internal_change).
T2 sequence: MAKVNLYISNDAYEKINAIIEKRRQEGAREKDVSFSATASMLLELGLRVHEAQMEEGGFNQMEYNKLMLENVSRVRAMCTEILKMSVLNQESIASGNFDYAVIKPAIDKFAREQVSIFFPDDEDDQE
Nature of the series: EMSA.

The target in another series is T3, pED208 TraM (plasmid pED208 (IncFV, derivative of …, UniProt P33788 1-127)).
T3 sequence: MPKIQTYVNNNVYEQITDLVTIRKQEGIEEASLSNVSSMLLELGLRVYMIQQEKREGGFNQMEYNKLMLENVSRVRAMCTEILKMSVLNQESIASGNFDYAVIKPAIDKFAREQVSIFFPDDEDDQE
Nature of the series: EMSA.

Series [5] concerns the target T4, pED208 TraM N-terminal domain (plasmid pED208, UniProt P33788 2-52).
T4 sequence: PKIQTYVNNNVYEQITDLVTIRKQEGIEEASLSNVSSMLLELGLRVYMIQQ
Briefly: EMSA.

With “pED208 TraM (from UniProt P33788 1-127) (natural protein)”, the stoichiometry N (commonly a count of units in the complex or per binding partner) in series [1] stood at 4.

B1: F sbmAB 75 bp (dsDNA)
DNA 1: TTATATTAGGGGTGCTGCTAGCGGCGCGGTGTGTTTTTTTATAGGATACCGCTAGGGGCGCTGCTAGCGGTGCGT
DNA 2: ACGCACCGCTAGCAGCGCCCCTAGCGGTATCCTATAAAAAAACACACCGCGCCGCTAGCAGCACCCCTAATATAA
For B1, the binding result with F TraM [2] is “binds”.

B2: F sbmA 30 bp (dsDNA)
DNA 1: GATACCGCTAGGGGCGCTGCTAGCGGTGCG
DNA 2: CGCACCGCTAGCAGCGCCCCTAGCGGTATC
For B2, the binding result (with F TraM [3]; in series [4]) was “binds” in each case.

B3: pED208 sbmA 24 bp (pED 4site, palindromic) (dsDNA)
DNA 1: AGATTCGAATCTAGATTCGAATCT
DNA 2: AGATTCGAATCTAGATTCGAATCT
Take B3: the Kd – broadly, the free concentration of one partner at which half of the binding sites on the other are occupied at equilibrium, for simple one-to-one binding – with pED208 TraM is 4.8 ± 0.7 nM. Also, in series [5], the binding signal is ~500 fold lower affinity than full-length.
